This assay concerns the target PrgJ (S. enterica sv. Typhimurium (endogenous in SB905)) (UniProt P41785). Kind of assay: cryo-EM structure.

Chain of PrgJ (P41785 whole entry): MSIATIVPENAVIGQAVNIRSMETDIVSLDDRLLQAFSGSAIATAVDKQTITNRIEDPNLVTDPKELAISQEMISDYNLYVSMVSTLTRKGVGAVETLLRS

What is called stoichiometry N is a count of units in the complex or per binding partner. For “PrgJ (from UniProt P41785 1-101) (natural protein)”, the stoichiometry N was determined as 6.

These data come from PMC7943601.
